Results taken from publication PMC4312765 (Protein & Cell, 2014).

Biological target: the molecule itself
Assay: static light scattering + AUC; Dpy30FL and Dpy30C in solution

B1: Dpy30 C-terminal domain (domain or fragment)
chain: not shown
For B1, the “stoichiometry N” value was 2.
